{
  "source": "patent US20120122125A1",
  "about": "(AbbVie / Abbott, published 2012)",
  "binders": {"B1": {"name": "recombinant chimeric (mouse-human) anti-Chagas monoclonal antibody 10-745-140 (FP10) (antibody, V domains shown)", "VH": "QVQLQQPGAELVKPGASVKMSCKASGYTFTSYWVHWVKQRPGQGLEWIGVIDPSDSYTSYNQKFKGKATLTVDTSSSTAYMQLSSLTSEDSAVYYCTRHYDFDSWYFDVWGAGTTVTVSS", "VL": "DVVMTQTPLSLPVSLGDQASISCRSSQSLVHSNGNTYLHWYLQKPGQSPKLLIYKVSNRFSGVPDRFSGSGSGTDFTLKISRVEAEDLGVYFCSQSTHVPPTFGGGTKLEIK", "notes": "Mouse VH and VL of hybridoma HBFP10 joined to human IgG1 (z, non-a) and human kappa constant regions; the summary and the claims swap them; also called Chimeric Chagas Ab 10-745-140; Chagas FP10 10-745-3796"}, "B2": {"name": "murine anti-Chagas monoclonal antibody 10-745-140 (FP10) (antibody, V domains shown)", "VH": "B1 VH", "VL": "B1 VL", "notes": "Mouse hybridoma mAb; captured by anti-mouse IgG; also called Murine Chagas Ab 10-745-140; Chagas 10-745-140"}, "B3": {"name": "murine anti-Chagas monoclonal antibody 8-367-171 (FRA) (antibody, V domains shown)", "VH": "EVQLQQSGAELVKPGASVKLSCTASGFNIKDTYMHWVKQRPEQGLEWIGRIDPANGNTKYDPKFQGKATITTDTSSNTAYLQLSSLTSEDTAVYYCATSYYGNYVAYWGHGTLVTVSA", "VL": "DIQMDQSPSSLSASLGDTITITCHASQNINVWLSWYQQKPGNIPKLLIYKASNLHTGVPSRFSGSGSGTGFTLTISSLQPEDIATYYCQQGQSYPLTFGSGRKLEIK", "notes": "Mouse hybridoma mAb; captured by anti-mouse IgG"}, "B4": {"name": "recombinant chimeric (mouse-human) anti-Chagas monoclonal antibody 12-392-150 (FP3) (antibody, V domains shown)", "VH": "DVQLVESGGGLVQPGGSRKLSCAASGFTFSVFGMHWVRQAPEKGLEWVAYISSGSTIIYYADTVKGRFTISRDNPKNTLFLQMTGLRSEDTAMYYCARPLYYDYDDYAMDYWGQGTSVTVSS", "VL": "YIVMSQSPSSLAVSAGEKVTMSCKSSQSLLNSRTRKNHLAWYQQKPGQSPKLLIYWASTRESGVPDRFTGSGSGTDFALTISSVQAEDLAVYFCKQSYNLYTFGAGTKLELK", "notes": "Mouse VH and VL of hybridoma HBFP3 joined to human IgG1 (z, non-a) and human kappa constant regions; the summary and the claims swap them; also called Chimeric Chagas Ab 12-392-150; Chagas FP3 12-392-150CHO2580-104"}, "B5": {"name": "recombinant chimeric (mouse-human) anti-Chagas monoclonal antibody 9-638-132 (Pep2 epitope in TcF and FP6) (antibody, V domains shown)", "VH": "QVQLQQPGAELVRPGASVKLSCKASGYTFTSYWMNWVKLRPGQGLEWIGMIDPSDSETYYDQVFKDKATLTVDKSSSTAYMHLSSLTSEDSAVYYCARWITTDSYTMDYWGQGTSVTVSS", "VL": "B4 VL with Y1D, K18Q, L30F, H38Y, A78T, F93Y, Y101L", "notes": "Mouse VH and VL of hybridoma HBPep2 joined to human IgG1 (z, non-a) and human kappa constant regions; the summary and the claims swap them; also called Chimeric Chagas Ab 9-638-132; Chagas Pep2 9-638-1928"}, "B6": {"name": "murine anti-Chagas monoclonal antibody 9-638-132 (Pep2 epitope in TcF and FP6) (antibody, V domains shown)", "VH": "B5 VH", "VL": "B4 VL with Y1D, K18Q, L30F, H38Y, A78T, F93Y, Y101L", "notes": "Mouse hybridoma mAb; captured by anti-mouse IgG; also called Murine Chagas Ab 9-638-132; hybrid 9-638"}, "B7": {"name": "murine anti-Chagas monoclonal antibody 12-392-150 (FP3) (antibody, V domains shown)", "VH": "B4 VH", "VL": "B4 VL", "notes": "Mouse hybridoma mAb; captured by anti-mouse IgG; also called Murine Chagas Ab 12-392-150; hybrid 12-392"}},
  "key": {"[1]": {"biological_target": "T1, Chagas FP3 recombinant antigen (Trypanosoma cruzi)", "T1 construct": "also called T. cruzi antigen FP3; not shown: His6 tag at the amino end, from the pET vector", "T1 chain": "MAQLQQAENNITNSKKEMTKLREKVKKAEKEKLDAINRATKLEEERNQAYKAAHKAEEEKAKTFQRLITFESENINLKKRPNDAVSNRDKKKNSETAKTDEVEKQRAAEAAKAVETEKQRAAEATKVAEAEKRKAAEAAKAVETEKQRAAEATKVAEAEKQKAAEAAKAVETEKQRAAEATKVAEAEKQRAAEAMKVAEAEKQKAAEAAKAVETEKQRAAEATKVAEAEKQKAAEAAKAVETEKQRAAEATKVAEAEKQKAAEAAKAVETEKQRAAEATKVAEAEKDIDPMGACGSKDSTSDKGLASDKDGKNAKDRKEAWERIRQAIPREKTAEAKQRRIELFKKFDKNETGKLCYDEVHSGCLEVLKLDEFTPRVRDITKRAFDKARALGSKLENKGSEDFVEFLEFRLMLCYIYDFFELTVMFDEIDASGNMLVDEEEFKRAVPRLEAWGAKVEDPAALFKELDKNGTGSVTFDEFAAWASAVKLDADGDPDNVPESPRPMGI", "assay": "SPR, BIAcore 2000; His6-tagged FP3 captured on anti-His4, chimeric antibody injected"}, "[2]": {"biological_target": "T2, Chagas FP10 recombinant antigen (Trypanosoma cruzi)", "T2 construct": "also called T. cruzi antigen FP10", "T2 chain": "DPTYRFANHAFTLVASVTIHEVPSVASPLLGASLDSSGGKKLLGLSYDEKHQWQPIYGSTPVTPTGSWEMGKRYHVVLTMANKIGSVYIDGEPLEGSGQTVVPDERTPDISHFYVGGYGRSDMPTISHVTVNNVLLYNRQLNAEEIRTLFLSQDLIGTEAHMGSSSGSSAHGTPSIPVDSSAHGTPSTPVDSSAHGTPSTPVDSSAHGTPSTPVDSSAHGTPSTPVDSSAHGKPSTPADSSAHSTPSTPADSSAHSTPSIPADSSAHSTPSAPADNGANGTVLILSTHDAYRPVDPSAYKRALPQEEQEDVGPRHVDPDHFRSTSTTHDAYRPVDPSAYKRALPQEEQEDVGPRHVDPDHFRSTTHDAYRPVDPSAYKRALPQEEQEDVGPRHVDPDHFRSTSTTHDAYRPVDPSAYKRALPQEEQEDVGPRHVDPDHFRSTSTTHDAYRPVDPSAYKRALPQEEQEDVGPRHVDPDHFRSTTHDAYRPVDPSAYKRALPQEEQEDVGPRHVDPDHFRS", "assay": "SPR, BIAcore 2000; His6-tagged FP10 captured on anti-His4, chimeric antibody injected 0-300 nM"}, "[3]": {"biological_target": "T2, Chagas FP10 recombinant antigen", "assay": "SPR, BIAcore 2000; murine mAb captured on rabbit anti-mouse IgG, FP10 injected 0-200 nM"}, "[4]": {"biological_target": "T1, Chagas FP3 recombinant antigen", "assay": "SPR, BIAcore 2000; murine mAb captured on rabbit anti-mouse IgG, FP3 injected"}, "[5]": {"biological_target": "T2, Chagas FP10 recombinant antigen", "assay": "SPR, BIAcore 2000; murine mAb captured on rabbit anti-mouse IgG, FP10 injected"}, "Chagas FRA antigen [6]": {"biological_target": "T3, Chagas FRA antigen (Trypanosoma cruzi)", "T3 construct": "also called FRA-domain; recombinant FRA antigen", "T3 chain": "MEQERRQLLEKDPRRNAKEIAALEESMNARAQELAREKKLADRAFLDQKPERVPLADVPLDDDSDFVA", "assay": "SPR, BIAcore 2000; murine mAb captured on rabbit anti-mouse IgG, FRA injected 0-200 nM"}, "[7]": {"biological_target": "Chagas recombinant antigen FP6 (Trypanosoma cruzi)", "assay": "SPR, BIAcore 2000; murine mAb captured on rabbit anti-mouse IgG, FP6 injected 0-200 nM"}, "[8]": {"biological_target": "T1, Chagas FP3 recombinant antigen", "assay": "SPR, BIAcore 2000; His6-tagged FP3 captured on anti-His4, chimeric antibody injected 0-300 nM"}, "[9]": {"biological_target": "T2, Chagas FP10 recombinant antigen", "assay": "SPR, BIAcore 2000; His6-tagged FP10 captured on anti-His4, chimeric antibody injected"}, "Pep2 antigen": {"biological_target": "T4, Pep2 antigen (Trypanosoma cruzi)", "T4 construct": "The form of Pep2 coated in the anti-Pep2 microtiter EIA is not described; also called TcF Pep2 peptide", "T4 peptide": "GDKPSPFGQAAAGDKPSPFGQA", "assay": "SPR, BIACORE; chimeric antibody from transient COS 7L expression; the antigen is not given"}, "[10]": {"biological_target": "Chagas TcF recombinant antigen (Trypanosoma cruzi)", "assay": "SPR, BIAcore 2000; chimeric antibody captured on goat anti-human IgG Fc, TcF injected 0-100 nM"}, "[11]": {"biological_target": "Chagas TcF recombinant antigen (Trypanosoma cruzi)", "assay": "SPR, BIAcore 2000; murine mAb captured on rabbit anti-mouse IgG, TcF injected 0-200 nM"}, "Chagas FRA antigen [12]": {"biological_target": "T3, Chagas FRA antigen", "assay": "SPR, BIAcore 2000; murine mAb captured on rabbit anti-mouse IgG, FRA injected"}, "[13]": {"biological_target": "T1, Chagas FP3 recombinant antigen", "assay": "SPR, BIAcore 2000; murine mAb captured on rabbit anti-mouse IgG, FP3 injected 0-200 nM"}},
  "note": "Residue numbers refer to the chain shown, from its start.",
  "data": [
    {"binder": "B1", "values": [
      {"measurement": "binding result", "setting": "[1]", "value": "no binding (tested: 0 to 300 nM antibody)"},
      {"measurement": "Kd", "setting": "[2]", "value": 2.9, "unit": "nM"},
      {"measurement": "koff", "setting": "[2]", "value": 0.00036, "unit": "s⁻¹"},
      {"measurement": "kon", "setting": "[2]", "value": 120000, "unit": "M⁻¹ s⁻¹"}
    ]},
    {"binder": "B2", "values": [
      {"measurement": "Kd", "setting": "[3]", "value": 1.9, "unit": "nM"},
      {"measurement": "koff", "setting": "[3]", "value": 0.00022, "unit": "s⁻¹"},
      {"measurement": "kon", "setting": "[3]", "value": 110000, "unit": "M⁻¹ s⁻¹"}
    ]},
    {"binder": "B3", "values": [
      {"measurement": "binding result", "setting": "[4]", "value": "no binding (tested: 0 to 200 nM antigen)"},
      {"measurement": "binding result", "setting": "[5]", "value": "no binding (tested: 0 to 200 nM antigen)"},
      {"measurement": "Kd", "setting": "Chagas FRA antigen [6]", "value": 37, "unit": "nM"},
      {"measurement": "koff", "setting": "Chagas FRA antigen [6]", "value": 0.13, "unit": "s⁻¹"},
      {"measurement": "kon", "setting": "Chagas FRA antigen [6]", "value": "3.6e+06", "unit": "M⁻¹ s⁻¹"},
      {"measurement": "Kd", "setting": "[7]", "value": 5.2, "unit": "nM"},
      {"measurement": "koff", "setting": "[7]", "value": 0.0079, "unit": "s⁻¹"},
      {"measurement": "kon", "setting": "[7]", "value": "1.5e+06", "unit": "M⁻¹ s⁻¹"}
    ]},
    {"binder": "B4", "values": [
      {"measurement": "Kd", "setting": "[8]", "value": 0.14, "unit": "nM"},
      {"measurement": "koff", "setting": "[8]", "value": 0.00038, "unit": "s⁻¹"},
      {"measurement": "kon", "setting": "[8]", "value": "2.7e+06", "unit": "M⁻¹ s⁻¹"},
      {"measurement": "binding result", "setting": "[9]", "value": "no binding (tested: 0 to 300 nM antibody)"}
    ]},
    {"binder": "B5", "values": [
      {"measurement": "Kd", "setting": "Pep2 antigen", "value": "~2.6", "unit": "nM"},
      {"measurement": "binding result", "setting": "[1]", "value": "no binding (tested: 0 to 300 nM antibody)"},
      {"measurement": "Kd", "setting": "[10]", "value": 4.1, "unit": "nM"},
      {"measurement": "koff", "setting": "[10]", "value": 0.017, "unit": "s⁻¹"},
      {"measurement": "kon", "setting": "[10]", "value": "4e+06", "unit": "M⁻¹ s⁻¹"},
      {"measurement": "binding result", "setting": "[9]", "value": "no binding (tested: 0 to 300 nM antibody)"}
    ]},
    {"binder": "B6", "values": [
      {"measurement": "Kd", "setting": "[11]", "value": 5.7, "unit": "nM"},
      {"measurement": "koff", "setting": "[11]", "value": 0.012, "unit": "s⁻¹"},
      {"measurement": "kon", "setting": "[11]", "value": "2.1e+06", "unit": "M⁻¹ s⁻¹"},
      {"measurement": "binding result", "setting": "[4]", "value": "no binding (tested: 0 to 200 nM antigen)"},
      {"measurement": "binding result", "setting": "Chagas FRA antigen [12]", "value": "no binding (tested: 0 to 200 nM antigen)"}
    ]},
    {"binder": "B7", "values": [
      {"measurement": "binding result", "setting": "[5]", "value": "no binding (tested: 0 to 200 nM antigen)"},
      {"measurement": "Kd", "setting": "[13]", "value": 0.08, "unit": "nM"},
      {"measurement": "koff", "setting": "[13]", "value": "5e-05", "unit": "s⁻¹"},
      {"measurement": "kon", "setting": "[13]", "value": 560000, "unit": "M⁻¹ s⁻¹"},
      {"measurement": "binding result", "setting": "Chagas FRA antigen [12]", "value": "no binding (tested: 0 to 200 nM antigen)"}
    ]}
  ]
}
